Common to all, as to conditions: both partners purified
The target in series [1] is T1, (His)6-14-3-3ε (UniProt P62258 1-255).
T1 construct: 14-3-3 protein epsilon; also called His-tagged protein; source: bought: Novus Biologicals
T1 sequence (looked up): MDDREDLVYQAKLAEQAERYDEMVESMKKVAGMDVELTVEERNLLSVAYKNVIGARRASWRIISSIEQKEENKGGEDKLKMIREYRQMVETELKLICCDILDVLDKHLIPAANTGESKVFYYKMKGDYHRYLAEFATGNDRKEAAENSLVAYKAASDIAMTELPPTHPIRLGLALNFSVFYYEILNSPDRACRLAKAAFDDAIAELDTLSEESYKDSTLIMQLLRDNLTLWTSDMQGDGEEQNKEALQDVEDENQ
The experiment in a line: differential scanning fluorimetry; 14-3-3ε 2 µM with peptide 30 μM, SYPRO-orange; 20 mM TRIS, 150 mM NaCl, 1 mM DTT, pH 7.4; ΔTm = Tm with peptide minus Tm of 14-3-3ε alone. A general note: DSF heats the sample and reads unfolding from a dye or from intrinsic fluorescence.

Series [2] deals with T1, (His)6-14-3-3ε. Description: SPR; Biacore 8K; 100 nM His6-14-3-3ε immobilized on NiCl2-activated NTA chip; peptides injected at 0-500 μM (depending on the peptide); 20 mM TRIS, 150 mM NaCl, 50 μM EDTA, 0.005% Tween 20, pH 7.4; steady-state binding model. (In general: In SPR one partner is held on a chip, and binding of the other changes the refractive index at the surface.)

Series [3] has as its target T1, (His)6-14-3-3ε. The series is described as above. The source holds these as a separate data set.

This note sets out measurements from paper PMC11084659, “The Development of CDC25A-Derived Phosphoseryl Peptides That Bind 14-3-3ε with High Affinities” (International Journal of Molecular Sciences, 2024).

[ ]: non-standard residue; d: D form. pS = N[C@@H](COP(=O)(O)O)C(=O)O

B1: pS peptide, CDC25A residues 173–186 (peptide)
peptide: Ac-TQRQN[pS]APARMLSS-NH2
SMILES: CSCC[C@H](NC(=O)[C@H](CCCNC(=N)N)NC(=O)[C@H](C)NC(=O)[C@@H]1CCCN1C(=O)[C@H](C)NC(=O)[C@H](COP(=O)(O)O)NC(=O)[C@H](CC(N)=O)NC(=O)[C@H](CCC(N)=O)NC(=O)[C@H](CCCNC(=N)N)NC(=O)[C@H](CCC(N)=O)NC(=O)[C@@H](NC(C)=O)[C@@H](C)O)C(=O)N[C@@H](CC(C)C)C(=O)N[C@@H](CO)C(=O)N[C@@H](CO)C(N)=O
notes: CDC25A residues 173-186, with phosphoserine at 178; also called parent pS peptide; source: synthetic peptide (Biosynth International Inc.), >95% purity
B1: the ΔTm – broadly, the shift of the melting midpoint relative to a reference – with (His)6-14-3-3ε [1] worked out at 0.35 °C. Further, the Kd (in general, a measure of binding affinity in units of concentration) with (His)6-14-3-3ε [2] amounted to 0.22 µM.

B2: pS(174–182) (peptide)
peptide: Ac-QRQN[pS]APAR-NH2
SMILES: CC(=O)N[C@@H](CCC(N)=O)C(=O)N[C@@H](CCCNC(=N)N)C(=O)N[C@@H](CCC(N)=O)C(=O)N[C@@H](CC(N)=O)C(=O)N[C@@H](COP(=O)(O)O)C(=O)N[C@@H](C)C(=O)N1CCC[C@H]1C(=O)N[C@@H](C)C(=O)N[C@@H](CCCNC(=N)N)C(N)=O
notes: CDC25A residues 174-182, with phosphoserine at 178; also called Ac-CDC25A(174–182)-NH2; source: synthetic peptide (Biosynth International Inc.), >95% purity
Take B2: the values for the Kd with (His)6-14-3-3ε [3] and in the series with (His)6-14-3-3ε [2] were 6.56 ± 2.16 µM and 9.05 µM, respectively.

B3: [Tyr^176]pS(174–182) (peptide)
peptide: Ac-QRYN[pS]APAR-NH2
SMILES: CC(=O)N[C@@H](CCC(N)=O)C(=O)N[C@@H](CCCNC(=N)N)C(=O)N[C@@H](Cc1ccc(O)cc1)C(=O)N[C@@H](CC(N)=O)C(=O)N[C@@H](COP(=O)(O)O)C(=O)N[C@@H](C)C(=O)N1CCC[C@H]1C(=O)N[C@@H](C)C(=O)N[C@@H](CCCNC(=N)N)C(N)=O
notes: CDC25A residues 174-182, with phosphoserine at 178 and Gln176 replaced by Tyr; source: synthetic peptide (Biosynth International Inc.), >95% purity
In the case of B3, the ΔTm with (His)6-14-3-3ε [1] was 1.1 °C. The Kd with (His)6-14-3-3ε [2] stood at 0.41 µM.

B4: [Tyr^179]pS(174–182) (peptide)
peptide: Ac-QRQN[pS]YPAR-NH2
SMILES: CC(=O)N[C@@H](CCC(N)=O)C(=O)N[C@@H](CCCNC(=N)N)C(=O)N[C@@H](CCC(N)=O)C(=O)N[C@@H](CC(N)=O)C(=O)N[C@@H](COP(=O)(O)O)C(=O)N[C@@H](Cc1ccc(O)cc1)C(=O)N1CCC[C@H]1C(=O)N[C@@H](C)C(=O)N[C@@H](CCCNC(=N)N)C(N)=O
notes: CDC25A residues 174-182, with phosphoserine at 178 and Ala179 replaced by Tyr; source: synthetic peptide (Biosynth International Inc.), >95% purity
In turn, B4 yielded a dissociation constant (Kd) with (His)6-14-3-3ε [2] of 116 µM.

B5: [Phe^179]pS(174–182) (peptide)
peptide: Ac-QRQN[pS]FPAR-NH2
SMILES: CC(=O)N[C@@H](CCC(N)=O)C(=O)N[C@@H](CCCNC(=N)N)C(=O)N[C@@H](CCC(N)=O)C(=O)N[C@@H](CC(N)=O)C(=O)N[C@@H](COP(=O)(O)O)C(=O)N[C@@H](Cc1ccccc1)C(=O)N1CCC[C@H]1C(=O)N[C@@H](C)C(=O)N[C@@H](CCCNC(=N)N)C(N)=O
notes: CDC25A residues 174-182, with phosphoserine at 178 and Ala179 replaced by Phe; source: synthetic peptide (Biosynth International Inc.), >95% purity
B5: the affinity with (His)6-14-3-3ε [2], expressed as Kd, was 58.3 µM.

B6: [Lys^177]pS(174–182) (peptide)
peptide: Ac-QRQK[pS]APAR-NH2
SMILES: CC(=O)N[C@@H](CCC(N)=O)C(=O)N[C@@H](CCCNC(=N)N)C(=O)N[C@@H](CCC(N)=O)C(=O)N[C@@H](CCCCN)C(=O)N[C@@H](COP(=O)(O)O)C(=O)N[C@@H](C)C(=O)N1CCC[C@H]1C(=O)N[C@@H](C)C(=O)N[C@@H](CCCNC(=N)N)C(N)=O
notes: CDC25A residues 174-182, with phosphoserine at 178 and Asn177 replaced by Lys; source: synthetic peptide (Biosynth International Inc.), >95% purity
In turn, B6 displayed a dissociation constant (Kd) in the series with (His)6-14-3-3ε [2] of 5.23 µM.

B7: [Phe^176]pS(174–182) (peptide)
peptide: Ac-QRFN[pS]APAR-NH2
SMILES: CC(=O)N[C@@H](CCC(N)=O)C(=O)N[C@@H](CCCNC(=N)N)C(=O)N[C@@H](Cc1ccccc1)C(=O)N[C@@H](CC(N)=O)C(=O)N[C@@H](COP(=O)(O)O)C(=O)N[C@@H](C)C(=O)N1CCC[C@H]1C(=O)N[C@@H](C)C(=O)N[C@@H](CCCNC(=N)N)C(N)=O
notes: CDC25A residues 174-182, with phosphoserine at 178 and Gln176 replaced by Phe; source: synthetic peptide (Biosynth International Inc.), >95% purity
For the molecule B7, the ΔTm with (His)6-14-3-3ε [1] was 1.08 °C. This molecule displayed a Kd in the series with (His)6-14-3-3ε [2] of 0.36 µM.
